Test results: patent CN112159477A (UNIV SHANGHAI MEDICAL & HEALTH SCIENCES, dated 2021)

Key:
[1] = target: T1, rhMICA-His蛋白 (human, UniProt Q29983 24-308); test: BLI (Fortebio Octet Red96), rhNKG2D-Fc captured on AHC sensor, rhMICA-His as analyte
T1 construct: Control protein; also called MICA蛋白; not shown: His tag
T1 sequence (looked up): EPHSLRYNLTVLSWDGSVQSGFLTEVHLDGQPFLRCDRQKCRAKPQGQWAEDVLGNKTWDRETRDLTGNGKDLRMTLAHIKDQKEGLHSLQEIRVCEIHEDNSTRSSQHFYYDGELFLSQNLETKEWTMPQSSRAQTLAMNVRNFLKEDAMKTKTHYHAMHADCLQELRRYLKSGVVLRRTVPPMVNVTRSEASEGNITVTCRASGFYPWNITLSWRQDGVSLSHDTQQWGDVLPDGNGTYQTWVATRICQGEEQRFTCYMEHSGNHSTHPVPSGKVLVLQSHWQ

[2] = target: T1, rhMICA-His蛋白; test: BLI (Fortebio Octet Red96), rhNKG2D-Fc captured on AHC sensor, rhMICA-His 1.23-11.1 nM as analyte

B1: rhNKG2D-Fc蛋白 (Fc fusion, human, UniProt P26718 78-216, looked up)
chain: FLNSLFNQEVQIPLTESYCGPCPKNWICYKNNCYQFFDESKNWYESQASCMSQNASLLKVYSKEDQDLLKLVKSYHWMGLVHIPTNGSWQWEDGSILSPNLLTIIEMQKGDCALYASSFKGYIENCSTPNTYICMQRTV
notes: the order of the parts follows the printed name only; not shown: Fc part (captured by an anti-human IgG Fc sensor)
[1]
  koff: 0.0015 s⁻¹
  kon: 1.19e+06 M⁻¹ s⁻¹
[2]
  Kd: 1.26 nM
